Drawing on patent US12226476B2, “Helper epitope peptide and application thereof” (CHINA PHARMACEUTICAL UNIVERSITY, priority 2018, dated 2025), this text covers antibody titer and antibody titers for 8 molecules.

Non-standard residues stand in square brackets, D forms with d. Phe(4-NO2) = N[C@@H](Cc1ccc([N+](=O)[O-])cc1)C(=O)O

Assay in all cases: Antibody titer in serum of immunized mice, indirect ELISA
Common to all, as to format: in vivo

The subject of one assay is EGFR. The note with it: FIG. 4; compared with the EGFR group and the EGFR-PADRE group; mice immunized subcutaneously, 50 μg, Freund's adjuvant. Here is the method:
(§1) The protocol is as follows: • (1) The helper epitope was connected to individual antigens or antigen epitope with the linking peptide to construct multiple fusion antigens. The sequence of the linking peptide is GPSL (i.e. Gly-Pro-Ser-Leu) (SEQ ID NO:51). • (2) The fusion antigens from (1) were emulsified adequately with complete Freund's adjuvant of the same volume. Then to immunize mice via subcutaneous injection with the emulsion at the dose of 50 μg per mouse. The strains of experimental mice including C57, Fvb and Balb/C. After 7 days and 14 days of first immunization, the fusion antigens from (1) were emulsified adequately with incomplete Freund's adjuvant of the same volume and then to immunize mice via subcutaneous injection with the emulsion at the dose of 50 μg per mouse. • (3) There are two detection methods. One is to obtain the orbital blood of immunized mice on 7, 14, 21 and 28 day respectively, centrifuge the whole blood to get the serum. Then the antibody titer is detected by indirect ELISA. The other one is: one week after the last immunization, the mice are killed to get the spleen. PBMC (peripheral blood mononuclear cells) are isolated, and the CTL-mediated cytotoxicity is detected by LDH (lactate dehydrogenase) kit.
(§2) The first step was to construct the fusion antigen. According to each fusion antigen, C57BL/6 female mice aged 6-8 weeks were randomly divided into three groups with 6 mice in each group. They were PBS group, existing antigen or antigen epitope group, antigen-PADRE or antigen epitope-PADRE group, and vaccine group containing fusion antigen.
(§3) In the second step, using fusion antigen to immunize mice via subcutaneous injection for 3 times […] 50 μg each time. Mixed with Freund's adjuvant of the same volume.
(§4) Method 1: The whole blood was collected every week after immunization and centrifugated at 6000 rpm for 20 min to obtain the serum for a total of 4 weeks. Antibody titers were detected by indirect ELISA as follows: • (1) Coating: the existing antigen or antigen epitope was diluted to 5 μg/mL with coating solution. Then the 100 μL mixed solution was added into each well of enzyme immunoassay test strip, and incubated in 37° C. incubator for 2 h; • (2) use PBST to wash each well 5 times for 5 min each time; • (3) Sealing: 150 μL locking solution was added to each well of the enzyme immunoassay test strip and incubated at 4° C. overnight. • (4) Repeat step (2); • (5) Incubation first antibody: the collected mouse serum was diluted with antibody diluent. Then the 100 μL mixed solution was added into each well, and incubated at 37° C. for 2 h; • (6) Repeat step (2); • (7) Incubating secondary antibodies: HRP-GOAT Anti-mouse IgG was diluted with antibody dilution in the ratio of 1:10000, and 100 μL dilution was added to each well, and incubated at 37° C. for 45 min; • (8) Repeat step (2); • (9) Substrate addition: 100 μL TMB substrate reaction solution was added into each well of enzyme label, and incubated at 37° C. for 15 min in darkness. • (10) Termination reaction: 50 μL 2M H2SO4 was added into each well to terminate the reaction. • (11) Color development: the absorbance value of the sample in each well was detected at 450/630 nm.

A further assay deals with IL-2Ra. To be noted: FIG. 9; compared with the IL-2Ra group and the IL-2Ra-PADRE group; mice immunized subcutaneously, 50 μg, Freund's adjuvant. How it is done: as §1, §2, §3, §4
In the next assay the test system is PSMA. To be noted: FIG. 11; compared with the PSMA group and the PSMA-PADRE group; mice immunized subcutaneously, 50 μg, Freund's adjuvant. How it is done: as §1, §2, §3, §4
For assay [1], the system named is VEGFR extracellular domain. To be noted: FIG. 8; compared with the VEGFR extracellular region group and the VEGFR-PADRE group; mice immunized subcutaneously, 50 μg, Freund's adjuvant. How it is done: as §1, §2, §3, §4
In another assay the test system is CD66e. To be noted: FIG. 6; compared with the CD66e group and the CD66e-PADRE group; mice immunized subcutaneously, 50 μg, Freund's adjuvant. How it is done:
as §1, §2, §3, §4

The test system of another assay is TOLL-1. To be noted: FIG. 12; compared with the TOLL-1 group and the TOLL-1-PADRE group; mice immunized subcutaneously, 50 μg, Freund's adjuvant. Here is the method: as §1, §2, §3, §4
A further assay has as its system CD20. The note with it: FIG. 5; compared with the CD20 group and the CD20-PADRE group; mice immunized subcutaneously, 50 μg, Freund's adjuvant. Here is the method: as §1, §2, §3, §4
A further assay deals with PD-L1 molecule. The note with it: FIG. 2; compared with the PD-L1 group and the PD-L1-PADRE group; mice immunized subcutaneously, 50 μg, Freund's adjuvant. How it is done: as §1, §2, §3, §4

B1: EGFR-4pPhe-PADRE: fusion antigen: EGFR linked via GPSL to helper epitope SEQ ID NO: 5 (protein)
chain: MERKERPFDVIGQLAALRRYARSLVRNSDDAEDLVHDALLRAYEKKQSFRRGGNLRTWLLSIMHNAHIDRVRQARSLARRHDEAAVEAEQSLQAGQEHAVRLKQVRDAFFHLSEEQREALHLVAIEDLSYQEAAMALDIPIGTLMSRISRARAQLREFEEKTPRAAHLRLIGGDGNEGNGPSLAKF[Phe(4-NO2)]AAWTLKAAA
For B1, the antibody titer result with EGFR is listed as “increased significantly”.

B2: IL/2Ra-9pPhe-PADRE: fusion antigen: IL-2Ra linked via GPSL to helper epitope SEQ ID NO: 10 (protein)
chain: ELCDDDPPEIPHATFKAMAYKEGTMLNCECKRGFRRIKSGSLYMLCTGNSSHSSWDNQCQCTSSATRNTTKQVTPQPEEQKERKTTEMQSPMQPVDQASLPGHCREPPPWENEATERIYHFVVGQMVYYQCVQGYRALHRGPAESVCKMTHGKTRWTQPQLICTGEMETSQFPGEEKPQASPEGRPESETSCLVTTTDFQIQTEMAATMETSIFTTEYQGPSLAKFVAAWT[Phe(4-NO2)]KAAA
For the molecule B2, in the assay with IL-2Ra, the antibody titers result is given as “increased significantly”.

B3: PSMA-11pPhe-PADRE: fusion antigen: PSMA linked via GPSL to helper epitope SEQ ID NO: 12 (protein)
chain: QGQAQQQAYDRGITIFSPDGRLYQVEYAREAVKRGTASIGVRTPEGVVLAADKRSRSPLMEPTSVEKIHKADDHIGIASAGHVADARQLIDFARRQSQVNRLRYGEPIGIETLTKEVTDHIQQYTQVGGARPFGVALLIGGVENGTPRLYETDPSGTPYEWKAVSIGADRGDHQEHLEENFRDDLTLDEGIELALEAIASTSDEGTAPDGVDVATVSAETERFVELSNDEIESYLEANDLLATEDDEQTEEGPSLAKFVAAWTLK[Phe(4-NO2)]AA
As for B3, in the assay with PSMA, the antibody titers result is given as “increased significantly”.

B4: VEGFR-8pPhe-PADRE: fusion antigen: VEGFR extracellular domain linked via GPSL to helper epitope SEQ ID NO: 9 (protein)
chain: ASVGLPSVSLDLPRLSIQKDILTIKANTTLQITCRGQRDLDWLWPNNQSGSEQRVEVTECSDGLFCKTLTIPKVIGNDTGAYKCFYRETDLASVIYVYVQDYRSPFIASVSDQHGVVYITENKNKTVVIPCLGSISNLNVSLCARYPEKRFVPDGNRISWDSKKGFTIPSYMISYAGMVFCEAKINDESYQSIMYIVVVVGYRIYDVVLSPSHGIELSVGEKLVLNCTARTELNVGIDFNWEYPSSKHQHKKLVNRDLKTQSGSEMKKFLSTLTIDGVTRSDQGLYTCAASSGLMTKKNSTFVRVHEKPFVAFGSGMESLVEATVGERVRIPAKYLGYPPPEIKWYKNGIPLESNHTIKAGHVLTIMEVSERDTGNYTVILTNPISKEKQSHVVSLVVYVPPQIGEKSLISPVDSYQYGTTQTLTCTVYAIPPPHHIHWYWQLEEECANEPSQAVSVTNPYPCEEWRSVEDFQGGNKIEVNKNQFALIEGKNKTVSTLVIQAANVSALYKCEAVNKVGRGERVISFHVTRGPEITLQPDMQPTEQESVSLWCTADRSTFENLTWYKLGPQPLPIHVGELPTPVCKNLDTLWKLNATMFSNSTNDILIMELKNASLQDQGDYVCLAQDRKTKKRHCVVRQLTVLERVAPTITGNLENQTTSIGESIEVSCTASGNPPPQIMWFKDNETLVEDSGIVLKDGNRNLTIRRVRKEDEGLYTCQACSVLGCAKVEAFFIIEGAQEKTNLEGPSLAKFVAAW[Phe(4-NO2)]LKAAA
On to B4, for which the antibody titers result in assay [1] is reported as “increased significantly”.

B5: CD66e-6pPhe-PADRE: fusion antigen: CD66e linked via GPSL to helper epitope SEQ ID NO: 7 (protein)
chain: KLTIESTPFNVAEGKEVLLLVHNLPQHLFGYSWYKGERVDGNRQIIGYVIGTQQATPGPAYSGREIIYPNASLLIQNIIQNDTGFYTLHVIKSDLVNEEATGQFRVYPELPKPSISSNNSKPVEDKDAVAFTCEPETQDATYLWWVNNQSLPVSPRLQLSNGNRTLTLFNVTRNDTASYKCETQNPVSARRSDSVILNVLYGPDAPTISPLNTSYRSGENLNLSCHAASNPPAQYSWFVNGTFQQSTQELFIPNITVNNSGSYTCQAHNSDTGLNRTTVTTITVYAEPPKPFITSNNSNPVEDEDAVALTCEPEIQNTTYLWWVNNQSLPVSPRLQLSNDNRTLTLLSVTRNDVGPYECGIQNKLSVDHSDPVILNVLYGPDDPTISPSYTYYRPGVNLSLSCHAASNPPAQYSWLIDGNIQQHTQELFISNITEKNSGLYTCQANNSASGHSRTTVKTITVSAELPKPSISSNNSKPVEDKDAVAFTCEPEAQNTTYLWWVNGQSLPVSPRLQLSNGNRTLTLFNVTRNDARAYVCGIQNSVSANRSDPVTLDVLYGPDTPIISPPDSSYLSGANLNLSCHSASNPSPQYSWRINGIPQQHTQVLFIAKITPNNNGTYACFVSNLATGRNNSIVKSITVSASGTSPGLSAGPSLAKFVA[Phe(4-NO2)]WTLKAAA
For the molecule B5, in the assay with CD66e, the antibody titer entry was “significant increase”.

B6: TOLL/1-12pPhe-PADRE: fusion antigen: TOLL-1 linked via GPSL to helper epitope SEQ ID NO: 13 (protein)
chain: SEFLVDRSKNGLIHVPKDLSQKTTILNISQNYISELWTSDILSLSKLRILIISHNRIQYLDISVFKFNQELEYLDLSHNKLVKISCHPTVNLKHLDLSFNAFDALPICKEFGNMSQLKFLGLSTTHLEKSSVLPIAHLNISKVLLVLGETYGEKEDPEGLQDFNTESLHIVFPTNKEFHFILDVSVKTVANLELSNIKCVLEDNKCSYFLSILAKLQTNPKLSNLTLNNIETTWNSFIRILQLVWHTTVWYFSISNVKLQGQLDFRDFDYSGTSLKALSIHQVVSDVFGFPQSYIYEIFSNMNIKNFTVSGTRMVHMLCPSKISPFLHLDFSNNLLTDTVFENCGHLTELETLILQMNQLKELSKIAEMTTQMKSLQQLDISQNSVSYDEKKGDCSWTKSLLSLNMSSNILTDTIFRCLPPRIKVLDLHSNKIKSIPKQVVKLEALQELNVAFNSLTDLPGCGSFSSLSVLIIDHNSVSHPSADFFQSCQKMRSIKAGDNPFQCTCELGEFVKNIDQVSSEVLEGWPDSYKCDYPESYRGTLLKDFHMSELSCNITGPSLAKFVAAWTLKA[Phe(4-NO2)]A
In the case of B6, in the assay on TOLL-1, the antibody titers result is listed as “increased significantly”.

B7: CD20-5pPhe-PADRE: fusion antigen: CD20 linked via GPSL to helper epitope SEQ ID NO: 6 (protein)
chain: MTTPRNSVNGTFPAEPMKGPIAMQSGPKPLFRRMSSLVGPTQSFFMRESKTLGAVQIMNGLFHIALGGLLMIPAGIYAPICVTVWYPLWGGIMYIISGSLLAATEKNSRKCLVKGKMIMNSLSLFAAISGMILSIMDILNIKISHFLKMESLNFIRAHTPYINIYNCEPANPSEKNSPSTQYCYSIQSLFLGILSVMLIFAFFQELVIAGIVENEWKRTCSRPKSNIVLLSAEEKKEQTIEIKEEVVGLTETSSQPKNEEDIEIIPIQEEEEEETETNFPEPPQDQESSPIENDSSPGPSLAKFV[Phe(4-NO2)]AWTLKAAA
Consider B7, for which the antibody titer result in the assay on CD20 was “significant increase”.

B8: PD/L1-2pPhe-PADRE: fusion antigen: PD-L1 molecule linked via GPSL to helper epitope SEQ ID NO: 3 (protein)
chain: MQLKPMEINPEMLNKVLSRLGVAGQWRFVDVLGLEEESLGSVPAPACALLLLFPLTAQHENFRKKQIEELKGQEVSPKVYFMKQTIGNSCGTIGLIHAVANNQDKLGFEDGSVLKQFLSETEKMSPEDRAKCFEKNEAIQAAHDAVAQEGQCRVDDKVNFHFILFNNVDGHLYELDGRMPFPVNHGASSEDTLLKDAAKVCREFTEREQGEVRFSAVALCGPSLA[Phe(4-NO2)]FVAAWTLKAAA
Consider B8, for which the antibody titer entry in the assay on PD-L1 molecule is listed as “significant increase”.
